Key:
[1] = biological target: 4 domain CD4 (residues 1-388) with a C-terminal twin strep tag (human) (UniProt P01730); experiment: SEC
[2] = biological target: intact human C-C chemokine receptor type 5 (human) (UniProt P51681); experiment: SEC
Chain of UniProt P51681 (P51681 whole entry): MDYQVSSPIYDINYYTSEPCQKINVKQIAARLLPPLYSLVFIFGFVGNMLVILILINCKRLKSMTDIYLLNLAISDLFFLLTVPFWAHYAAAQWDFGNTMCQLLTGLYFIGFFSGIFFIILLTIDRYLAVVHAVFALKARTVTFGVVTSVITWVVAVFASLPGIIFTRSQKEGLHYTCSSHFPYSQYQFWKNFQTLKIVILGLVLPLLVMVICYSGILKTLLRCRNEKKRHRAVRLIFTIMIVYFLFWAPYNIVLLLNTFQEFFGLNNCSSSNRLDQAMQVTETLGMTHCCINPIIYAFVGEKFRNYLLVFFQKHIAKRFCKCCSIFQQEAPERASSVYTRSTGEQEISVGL

stoichiometry N [2] | Substance | stoichiometry N [1]
 | HIV-1 gp120 (residues 1-507) from the isolate 92BR020 with a C-terminal 6xhistidine tag (natural protein) | 1
1 | preformed CD4-gp120 complex (from UniProt P01730 26-388) | 

— paper PMC6391877
